Experimental findings from patent US20220127354A1 (Amgen, published 2022) are described below.

In experiment [1] the target is T1, muCDH19(44-247)::huCDH19(250-364)::muCDH19(363-770) with Flag tag (construct F, Hu EC3) (human/mouse chimera).
T1 construct: leader left out; the entry starts at residue 44; also called C137911
Description: flow cytometry, transfected 293T cells.
Description: (§1) The experiment included assaying the anti-CDH19 antibodies against mouse Cadherin19 to determine suitability for binning on these human/mouse chimeras.

For experiment [2], the target named is T2, muCDH19(44-139)::huCDH19(142-364)::muCDH19(363-770) with Flag tag (construct E, Hu EC2-3) (human/mouse chimera).
T2 construct: leader left out; the entry starts at residue 44; also called C137847
As to the kind of experiment: flow cytometry, transfected 293T cells.
Description: as §1

For experiment [3], the target named is T3, muCDH19(44-323)::raCDH19(324-327)::muCDH19(328-770) with leader and FLAG (construct X) (rat/mouse chimera).
T3 construct: leader (1-43 of the entry) left out
T3 chain: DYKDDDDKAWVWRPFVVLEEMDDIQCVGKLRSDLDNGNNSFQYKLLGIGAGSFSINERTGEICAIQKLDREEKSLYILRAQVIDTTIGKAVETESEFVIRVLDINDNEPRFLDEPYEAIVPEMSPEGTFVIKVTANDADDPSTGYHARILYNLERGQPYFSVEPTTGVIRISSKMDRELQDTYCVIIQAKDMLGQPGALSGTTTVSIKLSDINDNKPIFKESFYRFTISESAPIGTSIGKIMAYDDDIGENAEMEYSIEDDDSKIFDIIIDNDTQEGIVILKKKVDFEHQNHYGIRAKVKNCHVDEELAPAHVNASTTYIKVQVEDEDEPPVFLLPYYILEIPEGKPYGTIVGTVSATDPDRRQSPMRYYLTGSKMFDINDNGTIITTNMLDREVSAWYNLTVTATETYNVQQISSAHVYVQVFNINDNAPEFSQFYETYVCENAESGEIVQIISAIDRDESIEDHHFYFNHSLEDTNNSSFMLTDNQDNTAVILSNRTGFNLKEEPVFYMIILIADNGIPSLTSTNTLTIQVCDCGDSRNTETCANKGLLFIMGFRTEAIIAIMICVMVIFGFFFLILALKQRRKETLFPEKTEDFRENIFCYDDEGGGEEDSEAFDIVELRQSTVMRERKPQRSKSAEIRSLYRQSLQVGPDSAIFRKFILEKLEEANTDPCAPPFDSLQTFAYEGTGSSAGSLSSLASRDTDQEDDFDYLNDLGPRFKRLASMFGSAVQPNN
Description: flow cytometry, transfected 293T cells, 2 mM CaCl2.
Description: (§2) The following binding assay was completed in presence of 2 mM CaCl₂). […] Cells were then washed one time and the amount of cell associated Alexa647-labelled Ab was quantitated by flow cytometry. The experiments included mock transfected controls.

The target in experiment [4] is T4, caCDH19(1-43)::FLAG::caCDH19(44-87)::rhCDH19(89-114)::caCDH19(115-770) (construct T, rh EC1b) (rhesus macaque/dog chimera).
T4 construct: leader left out
T4 chain: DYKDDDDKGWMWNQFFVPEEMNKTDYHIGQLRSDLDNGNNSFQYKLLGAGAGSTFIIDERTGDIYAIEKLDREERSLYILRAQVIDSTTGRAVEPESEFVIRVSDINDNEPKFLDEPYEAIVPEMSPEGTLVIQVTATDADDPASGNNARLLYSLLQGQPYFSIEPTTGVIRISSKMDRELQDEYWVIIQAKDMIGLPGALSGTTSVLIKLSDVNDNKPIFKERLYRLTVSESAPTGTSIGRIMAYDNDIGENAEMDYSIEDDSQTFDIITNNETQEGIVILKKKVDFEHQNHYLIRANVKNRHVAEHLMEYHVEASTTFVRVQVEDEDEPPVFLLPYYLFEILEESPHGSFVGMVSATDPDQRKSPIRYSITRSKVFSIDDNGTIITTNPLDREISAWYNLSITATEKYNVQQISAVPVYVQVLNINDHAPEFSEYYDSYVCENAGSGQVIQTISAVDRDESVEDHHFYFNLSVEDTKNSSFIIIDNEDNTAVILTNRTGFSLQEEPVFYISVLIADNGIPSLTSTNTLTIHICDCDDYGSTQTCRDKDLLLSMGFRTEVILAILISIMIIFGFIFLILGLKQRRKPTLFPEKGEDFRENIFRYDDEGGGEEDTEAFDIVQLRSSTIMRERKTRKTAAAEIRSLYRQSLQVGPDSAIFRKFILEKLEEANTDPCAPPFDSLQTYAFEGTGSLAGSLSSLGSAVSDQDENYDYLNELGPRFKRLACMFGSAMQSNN
Description: flow cytometry, transfected 293T cells, 2 mM CaCl2.
Description: as §2

In experiment [5] the target is T5, rhCDH19(1-43)::FLAG::rhCDH19(44-65)::caCDH19(65-770) (construct S, rh EC1a) (rhesus macaque/dog chimera).
T5 construct: leader (1-43 of the entry) left out
Description: flow cytometry, transfected 293T cells, 2 mM CaCl2.
Description: as §2

Experiment [6] addresses T6, caCDH19(1-42)::FLAG::caCDH19(43-770) (construct Q, Ca EC1-5) (dog).
T6 construct: also called caCDH19(44-770); dog Cadherin19
T6 chain: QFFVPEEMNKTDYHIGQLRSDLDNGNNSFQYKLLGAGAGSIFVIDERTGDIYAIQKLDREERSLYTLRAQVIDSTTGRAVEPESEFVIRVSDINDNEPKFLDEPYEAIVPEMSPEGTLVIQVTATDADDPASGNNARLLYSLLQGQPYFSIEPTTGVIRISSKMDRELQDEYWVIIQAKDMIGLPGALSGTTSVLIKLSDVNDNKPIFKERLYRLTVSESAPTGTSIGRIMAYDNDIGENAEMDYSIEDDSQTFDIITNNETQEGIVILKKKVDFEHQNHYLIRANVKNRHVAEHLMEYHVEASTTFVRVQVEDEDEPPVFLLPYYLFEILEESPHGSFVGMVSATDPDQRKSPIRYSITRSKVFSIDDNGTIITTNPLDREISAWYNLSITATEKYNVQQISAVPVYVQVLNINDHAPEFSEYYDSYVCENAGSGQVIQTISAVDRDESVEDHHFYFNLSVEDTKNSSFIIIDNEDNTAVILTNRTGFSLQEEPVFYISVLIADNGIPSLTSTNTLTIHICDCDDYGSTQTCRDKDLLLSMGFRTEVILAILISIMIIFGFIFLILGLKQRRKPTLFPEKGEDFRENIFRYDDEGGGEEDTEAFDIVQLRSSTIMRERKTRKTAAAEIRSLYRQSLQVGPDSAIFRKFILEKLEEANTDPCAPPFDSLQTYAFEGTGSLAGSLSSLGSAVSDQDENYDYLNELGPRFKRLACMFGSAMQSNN
Description: flow cytometry, transfected 293T cells, 2 mM CaCl2.
Description: as §2

For experiment [7], the target named is T7, rhCDH19(1-43)::FLAG::rhCDH19(44-141)::caCDH19(141-770) (construct R, rh EC1) (rhesus macaque/dog chimera).
T7 construct: leader (1-43 of the entry) left out
Description: flow cytometry, transfected 293T cells, 2 mM CaCl2.
Description: as §2

B1: hu anti-<huCDH19> 4B10 (Ab ID 13590) (antibody, V domains shown)
VH: QVQLVESGGGVVQPGRSLRLSCAASGFTFSSYDMHWVRQAPGKGLEWVAVISYDGTNEYYADSVKGRFTISRDTSKNTLYLQMNSLRAEDTAVYYCARERYFDWSFDYWGQGTLVSVSS
VL: EIVLTQSPGTLSLSPGERATLSCRASQSVSNTYLAWYHQRPGQAPRLLIYGASSRATGIPDRFSGSGSGTDFALTISSLEPEDFAVYYCQQYSNSWTFGQGTKVEIKR
notes: huIgG1z / huKLC; Bin 4
Turning to B1, the binding result in experiment [1], in experiment [2] and in experiment [3] was “binds” throughout.

B2: hu anti-<huCDH19> 26D1.1 (Ab ID 13882) (antibody, human IgG1, lambda, V domains shown)
VH: QVQLVQSGAEVKKPGASVKVSCKASRYTFTSYYMSWVRQAPGQGLEWMGIIHPSGGDTTYAQKFQGRVTMTGDTSTSTVYMELSSLRSEDTAVYYCARGGIKLWLHFDYWGQGTLVTVSS
VL: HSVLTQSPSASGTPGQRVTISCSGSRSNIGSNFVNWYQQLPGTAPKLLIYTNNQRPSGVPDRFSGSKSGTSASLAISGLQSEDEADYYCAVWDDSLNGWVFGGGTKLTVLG
notes: huIgG1z / huLLC-C2; Bin 2
As to B2, the binding result is listed as “binds” in experiment [4], “binds” in experiment [5], “no binding (tested: 5 ug/ml)” in experiment [6] and “binds” in experiment [7].

B3: hu anti-<huCDH19> 4A9 (Ab ID 13589) (antibody, human IgG1, lambda, V domains shown)
VH: QVQLQESGPGLVKPSETLSLTCTVSGGSISGYYWSWIRQPPGKGLEWFAYFSYSGSTNYNPSLKSRVTLSVDTSKNQFSLKLSSVTAADTAVYYCARNWAFHFDFWGQGTLVTVSS
VL: QSVLTQPPSVSGAPGQRVTISCTGSSSNIGTGYAVHWYQQFPGTAPKLLIYGNNNRPSGVPDRFSGSKSGTSASLAITGLQAEDEADYYCQSYDSRLSGWVFGGGTKLTVLG
notes: huIgG1z / huLLC-C1; Bin 1
Consider B3, for which the binding result is reported as “no binding (tested: 5 ug/ml)” in experiment [4], “no binding (tested: 5 ug/ml)” in experiment [5], “no binding (tested: 5 ug/ml)” in experiment [6] and “binds” in experiment [7].

B4: anti-CDH19 antibody 2G6 (Ab ID 13588) (antibody, human IgG1, lambda, V domains shown)
VH: QVQLVESGGGVVQPGRSLRLSCAASGFTFSSYGMHWVRQAPGKGLEWVAFIWYDGSNKYYADSVKDRFTISRDNSKNTLYLQMKSLRAEDTAVYYCARRAGIIGTIGYYYGMDVWGQGTTVTVSS
VL: SYELTQPPSVSVSPGQTASITCSGDRLGEKYTCWYQQRPGQSPLLVIYQDTKRPSGIPERFSGSNSGNTATLTISGTQAMDEADYYCQAWDSSTVVFGGGTKLTVLG
notes: Bin 4
For B4, the binding result in experiment [1], in experiment [2] and in experiment [3] was “binds” each time.
